Assay results as given in patent US20140087995A1 (published 2014).
Numbered stars: 1 amine (or outer) side, 2 acyl side, 3 side chain; on linkers, the order of the positions; unused ones are H or OH. Bridge positions count the residues as written; N and C are the ends. * marks the point of attachment. C20 diacid = O=C(O)CCCCCCCCCCCCCCCCCCC(=O)*; γGlu = O=C(O)[C@H](CCC(=O)[*:2])N[*:1]

T1: rat calcitonin receptor (rat, UniProt P32214 25-516)
T1 construct: whole, on cells; Used as membranes prepared from the transfected cells; also called rCTR; rat calcitonin (a) receptor
T1 sequence (looked up): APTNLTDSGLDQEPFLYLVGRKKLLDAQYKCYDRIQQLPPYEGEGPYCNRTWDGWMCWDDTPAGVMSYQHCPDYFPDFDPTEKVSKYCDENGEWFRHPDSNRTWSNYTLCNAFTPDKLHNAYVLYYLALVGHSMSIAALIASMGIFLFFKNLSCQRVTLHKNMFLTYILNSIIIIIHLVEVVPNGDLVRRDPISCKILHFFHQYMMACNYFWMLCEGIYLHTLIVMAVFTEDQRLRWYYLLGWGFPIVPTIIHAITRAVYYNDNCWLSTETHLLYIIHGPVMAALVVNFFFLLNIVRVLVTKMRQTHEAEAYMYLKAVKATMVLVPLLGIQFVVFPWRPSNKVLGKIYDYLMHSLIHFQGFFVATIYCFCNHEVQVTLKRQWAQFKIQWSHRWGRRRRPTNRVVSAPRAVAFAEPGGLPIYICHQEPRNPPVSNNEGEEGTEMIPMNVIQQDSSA

T2: human calcitonin receptor (human, UniProt P30988 25-474)
T2 construct: whole, on cells; Used as membranes prepared from the transfected cells (Assay VII); also called hCTR; hCT
T2 sequence (looked up): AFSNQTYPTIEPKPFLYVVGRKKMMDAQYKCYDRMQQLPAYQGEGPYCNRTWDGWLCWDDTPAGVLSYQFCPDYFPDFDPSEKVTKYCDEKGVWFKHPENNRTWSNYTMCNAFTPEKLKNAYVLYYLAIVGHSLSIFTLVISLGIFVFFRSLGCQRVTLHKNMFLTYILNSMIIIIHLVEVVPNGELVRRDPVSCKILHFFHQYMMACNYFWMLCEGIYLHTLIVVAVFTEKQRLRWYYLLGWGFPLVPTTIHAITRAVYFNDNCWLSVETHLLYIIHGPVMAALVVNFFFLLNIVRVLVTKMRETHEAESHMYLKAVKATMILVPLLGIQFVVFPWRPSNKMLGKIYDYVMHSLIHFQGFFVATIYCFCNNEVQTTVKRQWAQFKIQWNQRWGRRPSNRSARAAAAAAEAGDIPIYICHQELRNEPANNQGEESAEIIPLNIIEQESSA

T3: rat amylin receptor (rat calcitonin receptor + rat RAMP 3) (rat, UniProt P32214 25-516; Q9JJ73 23-147)
T3 construct: whole, on cells; Used as membranes prepared from the transfected cells; also called rAmylin-R; rat amylin 3(a) receptor
T3 sequence (looked up) 1: T1 sequence (looked up)
T3 sequence (looked up) 2: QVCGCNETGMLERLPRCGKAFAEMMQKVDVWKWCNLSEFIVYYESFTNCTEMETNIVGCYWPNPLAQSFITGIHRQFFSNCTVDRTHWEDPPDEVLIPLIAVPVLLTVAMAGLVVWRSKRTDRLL

B1: N^α1-[(4S)-4-carboxy-4-(19-carboxynonadecanoylamino)butanoyl]-[Arg17,Pro21,Pro27,Pro31,Glu35]-h-amylin (peptide)
peptide: {C20 diacid-γGlu}-KCNTATCATQRLANFLRHSSPNFGAIPSSTPVGSETY-NH2
modifications: disulfide 2-7
SMILES: CC[C@H](C)[C@H](NC(=O)[C@H](C)NC(=O)CNC(=O)[C@H](Cc1ccccc1)NC(=O)[C@H](CC(N)=O)NC(=O)[C@@H]1CCCN1C(=O)[C@H](CO)NC(=O)[C@H](CO)NC(=O)[C@H](Cc1c[nH]cn1)NC(=O)[C@H](CCCNC(=N)N)NC(=O)[C@H](CC(C)C)NC(=O)[C@H](Cc1ccccc1)NC(=O)[C@H](CC(N)=O)NC(=O)[C@H](C)NC(=O)[C@H](CC(C)C)NC(=O)[C@H](CCCNC(=N)N)NC(=O)[C@H](CCC(N)=O)NC(=O)[C@@H](NC(=O)[C@H](C)NC(=O)[C@@H]1CSSC[C@H](NC(=O)[C@H](CCCCN)NC(=O)CC[C@H](NC(=O)CCCCCCCCCCCCCCCCCCC(=O)O)C(=O)O)C(=O)N[C@@H](CC(N)=O)C(=O)N[C@@H]([C@@H](C)O)C(=O)N[C@@H](C)C(=O)N[C@@H]([C@@H](C)O)C(=O)N1)[C@@H](C)O)C(=O)N1CCC[C@H]1C(=O)N[C@@H](CO)C(=O)N[C@@H](CO)C(=O)N[C@H](C(=O)N1CCC[C@H]1C(=O)N[C@H](C(=O)NCC(=O)N[C@@H](CO)C(=O)N[C@@H](CCC(=O)O)C(=O)N[C@H](C(=O)N[C@@H](Cc1ccc(O)cc1)C(N)=O)[C@@H](C)O)C(C)C)[C@@H](C)O
notes: Derivative of human amylin; also called compound 28
B2: N^α1-[(4S)-4-carboxy-4-(19-carboxynonadecanoylamino)butanoyl]-[Glu14,Arg17,Pro21,Pro25,Pro28,Pro29,Pro37]-h-amylin (peptide)
peptide: {C20 diacid-γGlu}-KCNTATCATQRLAEFLRHSSPNFGPILPPTNVGSNTP-NH2
modifications: disulfide 2-7
SMILES: CC[C@H](C)[C@H](NC(=O)[C@@H]1CCCN1C(=O)CNC(=O)[C@H](Cc1ccccc1)NC(=O)[C@H](CC(N)=O)NC(=O)[C@@H]1CCCN1C(=O)[C@H](CO)NC(=O)[C@H](CO)NC(=O)[C@H](Cc1c[nH]cn1)NC(=O)[C@H](CCCNC(=N)N)NC(=O)[C@H](CC(C)C)NC(=O)[C@H](Cc1ccccc1)NC(=O)[C@H](CCC(=O)O)NC(=O)[C@H](C)NC(=O)[C@H](CC(C)C)NC(=O)[C@H](CCCNC(=N)N)NC(=O)[C@H](CCC(N)=O)NC(=O)[C@@H](NC(=O)[C@H](C)NC(=O)[C@@H]1CSSC[C@H](NC(=O)[C@H](CCCCN)NC(=O)CC[C@H](NC(=O)CCCCCCCCCCCCCCCCCCC(=O)O)C(=O)O)C(=O)N[C@@H](CC(N)=O)C(=O)N[C@@H]([C@@H](C)O)C(=O)N[C@@H](C)C(=O)N[C@@H]([C@@H](C)O)C(=O)N1)[C@@H](C)O)C(=O)N[C@@H](CC(C)C)C(=O)N1CCC[C@H]1C(=O)N1CCC[C@H]1C(=O)N[C@H](C(=O)N[C@@H](CC(N)=O)C(=O)N[C@H](C(=O)NCC(=O)N[C@@H](CO)C(=O)N[C@@H](CC(N)=O)C(=O)N[C@H](C(=O)N1CCC[C@H]1C(N)=O)[C@@H](C)O)C(C)C)[C@@H](C)O
notes: Derivative of human amylin; also called compound 4
B3: N^α1-[(4S)-4-carboxy-4-(19-carboxynonadecanoylamino)butanoyl]-[Arg17,Pro21,Pro27,Pro34,Glu35]-h-amylin (peptide)
peptide: {C20 diacid-γGlu}-KCNTATCATQRLANFLRHSSPNFGAIPSSTNVGPETY-NH2
modifications: disulfide 2-7
SMILES: CC[C@H](C)[C@H](NC(=O)[C@H](C)NC(=O)CNC(=O)[C@H](Cc1ccccc1)NC(=O)[C@H](CC(N)=O)NC(=O)[C@@H]1CCCN1C(=O)[C@H](CO)NC(=O)[C@H](CO)NC(=O)[C@H](Cc1c[nH]cn1)NC(=O)[C@H](CCCNC(=N)N)NC(=O)[C@H](CC(C)C)NC(=O)[C@H](Cc1ccccc1)NC(=O)[C@H](CC(N)=O)NC(=O)[C@H](C)NC(=O)[C@H](CC(C)C)NC(=O)[C@H](CCCNC(=N)N)NC(=O)[C@H](CCC(N)=O)NC(=O)[C@@H](NC(=O)[C@H](C)NC(=O)[C@@H]1CSSC[C@H](NC(=O)[C@H](CCCCN)NC(=O)CC[C@H](NC(=O)CCCCCCCCCCCCCCCCCCC(=O)O)C(=O)O)C(=O)N[C@@H](CC(N)=O)C(=O)N[C@@H]([C@@H](C)O)C(=O)N[C@@H](C)C(=O)N[C@@H]([C@@H](C)O)C(=O)N1)[C@@H](C)O)C(=O)N1CCC[C@H]1C(=O)N[C@@H](CO)C(=O)N[C@@H](CO)C(=O)N[C@H](C(=O)N[C@@H](CC(N)=O)C(=O)N[C@H](C(=O)NCC(=O)N1CCC[C@H]1C(=O)N[C@@H](CCC(=O)O)C(=O)N[C@H](C(=O)N[C@@H](Cc1ccc(O)cc1)C(N)=O)[C@@H](C)O)C(C)C)[C@@H](C)O
notes: Derivative of human amylin; also called compound 29
B4: N^α1-[(4S)-4-carboxy-4-(19-carboxynonadecanoylamino)butanoyl]-[Glu14,Arg17,Pro21,Pro25,Pro28,Pro29]-h-amylin (peptide)
peptide: {C20 diacid-γGlu}-KCNTATCATQRLAEFLRHSSPNFGPILPPTNVGSNTY-NH2
modifications: disulfide 2-7
SMILES: CC[C@H](C)[C@H](NC(=O)[C@@H]1CCCN1C(=O)CNC(=O)[C@H](Cc1ccccc1)NC(=O)[C@H](CC(N)=O)NC(=O)[C@@H]1CCCN1C(=O)[C@H](CO)NC(=O)[C@H](CO)NC(=O)[C@H](Cc1c[nH]cn1)NC(=O)[C@H](CCCNC(=N)N)NC(=O)[C@H](CC(C)C)NC(=O)[C@H](Cc1ccccc1)NC(=O)[C@H](CCC(=O)O)NC(=O)[C@H](C)NC(=O)[C@H](CC(C)C)NC(=O)[C@H](CCCNC(=N)N)NC(=O)[C@H](CCC(N)=O)NC(=O)[C@@H](NC(=O)[C@H](C)NC(=O)[C@@H]1CSSC[C@H](NC(=O)[C@H](CCCCN)NC(=O)CC[C@H](NC(=O)CCCCCCCCCCCCCCCCCCC(=O)O)C(=O)O)C(=O)N[C@@H](CC(N)=O)C(=O)N[C@@H]([C@@H](C)O)C(=O)N[C@@H](C)C(=O)N[C@@H]([C@@H](C)O)C(=O)N1)[C@@H](C)O)C(=O)N[C@@H](CC(C)C)C(=O)N1CCC[C@H]1C(=O)N1CCC[C@H]1C(=O)N[C@H](C(=O)N[C@@H](CC(N)=O)C(=O)N[C@H](C(=O)NCC(=O)N[C@@H](CO)C(=O)N[C@@H](CC(N)=O)C(=O)N[C@H](C(=O)N[C@@H](Cc1ccc(O)cc1)C(N)=O)[C@@H](C)O)C(C)C)[C@@H](C)O
notes: Derivative of human amylin; also called compound 6
B5: N^α1-[(4S)-4-carboxy-4-(19-carboxynonadecanoylamino)butanoyl]-[Glu14,Arg17,Pro21,Pro26,Pro37]-h-amylin (peptide)
peptide: {C20 diacid-γGlu}-KCNTATCATQRLAEFLRHSSPNFGAPLSSTNVGSNTP-NH2
modifications: disulfide 2-7
SMILES: CC(C)C[C@H](NC(=O)[C@H](CCCNC(=N)N)NC(=O)[C@H](CCC(N)=O)NC(=O)[C@@H](NC(=O)[C@H](C)NC(=O)[C@@H]1CSSC[C@H](NC(=O)[C@H](CCCCN)NC(=O)CC[C@H](NC(=O)CCCCCCCCCCCCCCCCCCC(=O)O)C(=O)O)C(=O)N[C@@H](CC(N)=O)C(=O)N[C@@H]([C@@H](C)O)C(=O)N[C@@H](C)C(=O)N[C@@H]([C@@H](C)O)C(=O)N1)[C@@H](C)O)C(=O)N[C@@H](C)C(=O)N[C@@H](CCC(=O)O)C(=O)N[C@@H](Cc1ccccc1)C(=O)N[C@@H](CC(C)C)C(=O)N[C@@H](CCCNC(=N)N)C(=O)N[C@@H](Cc1c[nH]cn1)C(=O)N[C@@H](CO)C(=O)N[C@@H](CO)C(=O)N1CCC[C@H]1C(=O)N[C@@H](CC(N)=O)C(=O)N[C@@H](Cc1ccccc1)C(=O)NCC(=O)N[C@@H](C)C(=O)N1CCC[C@H]1C(=O)N[C@@H](CC(C)C)C(=O)N[C@@H](CO)C(=O)N[C@@H](CO)C(=O)N[C@H](C(=O)N[C@@H](CC(N)=O)C(=O)N[C@H](C(=O)NCC(=O)N[C@@H](CO)C(=O)N[C@@H](CC(N)=O)C(=O)N[C@H](C(=O)N1CCC[C@H]1C(N)=O)[C@@H](C)O)C(C)C)[C@@H](C)O
notes: Derivative of human amylin; also called compound 5

What follows are binders tested against T1, rat calcitonin receptor (assay: ratio IC50 rat calcitonin receptor / IC50 rat amylin receptor (Assays VIII and VI)).

Ratio rCT/rAmylin binding	Binder
44.9	B1
3.1	B2
67	B3
21.7	B4
3.6	B5

The binders below were run against T2, human calcitonin receptor (assay: ratio IC50 human calcitonin receptor / IC50 human amylin receptor (Assays VII and V)).
Outline: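 Competition binding by SPA uses membrane preparations (35 ng/μL final) in pH 7.4 Hepes buffer with 1 mM CaCl2 and 5 mM MgCl₂. Incubation lasts 120 min at 25° C, and IC₅₀ comes from one-site fitting.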

Ratio hCT/hAmylin binding	Binder
20.5	B1
2.1	B2
13.9	B3
20	B4
1.4	B5

The binders below were run against T3, rat amylin receptor (rat calcitonin …) (assay: SPA competition with 125I-rat amylin, membranes of BHK cells with rat calcitonin receptor + rat RAMP3 (Assay VI)).

IC50 [nM]	Binder
1.22	B1
1.3	B2
0.322	B3
2.37	B4
1.3	B5

The binders below were run against T1, rat calcitonin receptor (assay: SPA competition with 125I-calcitonin, membranes of BHK cells with rat calcitonin receptor (Assay VIII)).

IC50 [nM]	Binder
54.9	B1
4.05	B2
21.6	B3
51.5	B4
4.65	B5
